Test results as given in patent publication US20200277405A1, “COMPOSITION FOR ANTIBODY-DRUG CONJUGATE DIRECTED AGAINST TUMOR-CELL ASSOCIATED POLYSIALIC ACID” (Cornell University, priority 2019, published 2020).

Legend:
[1] = test system: SW2 cells; experiment: Supplementary internalization assays; type: cell-based, human; settings: increases with concentration and time
Description: FIGS. 11A-11D depict internalization of mo735 by polySia-expressing cancer cells. […] Trypan blue was used to quench extracellular fluorescence. […] Cell membranes were labeled with wheat germ agglutinin (WGA,) and nuclei were stained with Hoescht. Scale bar, 10 μm. […] Cell membranes were labeled with wheat germ agglutinin (WGA) and nuclei were stained with Hoescht. Scale bar, 10 μm. […] Images include external mo735 detected with anti-mouse AF488, internal mo735 detected with anti-mouse AF647, nuclei stained with Hoescht, and a merged image. Scale bar, 10 μm.
For supplementary internalization assays, AF488-labeled isotype and mo735 antibodies were incubated with trypsinized SW2 cells at various concentrations for 2 h. Upon measurement in the flow cytometer, the extracellular fluorescence was quenched using trypan blue (final concentration 0.2%). For each sample, the mean fluorescence intensity (MFI) of 10,000 cells was measured in triplicate. […] Antibody internalization was also assessed according to the protocol described by Schmitz and coworkers (Diestel et al., “NCAM is Ubiquitylated, Endocytosed and Recycled in Neurons,” J. Cell. Sci. 120:4035-49 (2007), which is hereby incorporated by reference in its entirety), cells were incubated for 1 or 4 h at 37° C. with 150 nM mo735 in cell culture media. […]

[2] = test system: cultured neurons; settings: unconjugated antibody; cited from earlier work
[3] = previous SPR and ITC experiments; cited from earlier work
[4] = test system: cells and tissues; settings: previously published IHC results (Zhang et al.); cited from earlier work
[5] = test system: polysialylated NCAM; experiment: Glycoprotein array specificity profiling; type: binding, chicken
Method: (§1) FIGS. 2A-2D depict binding specificity and affinity of the ch735 antibody. […] ELISA signals (Abs370) were obtained with anti-human IgG secondary antibodies. […] Antibodies were assayed at 1 μg/mL and detected with anti-human IgG secondary antibodies. […] Antibodies were assayed at 10 μg/mL and detected with anti-mouse IgG secondary antibodies.
as §1, with “3A-3D” for “2A-2D”, “mo735” for “the ch735”, “anti-mouse” for “anti-human”
Specificity of mo735 and ch735 was determined using printed glycan arrays 5.3 and 5.4 at the CFG. Both antibodies were analyzed at 10 μg/mL with 5 μg/mL of anti-mouse or anti-human Alexa-Fluor 647 (AF647)-conjugated secondary, respectively. Specificity of mo735 (1 μg/mL) and ch735 (10 μg/mL) was also assessed on a custom glycoprotein array that contained ˜40-50 glycoproteins including chicken brain NCAM and endoN-treated chicken brain NCAM.

[6] = test system: polySia-positive cell lines SH-SY5Y, SW2, H69, and H82; experiment: Internalization assay, polySia-positive cell lines; type: cell-based, human; settings: after 1 h at 37° C.; each polySia-positive cell line
Method: (§2) FIGS. 10A-10E depict internalization of ch735 into polySia-positive cancer cells. […] Nuclei were stained by Hoescht (blue). Scale bar, 10 Fluorescence intensity was measured across the dotted line and normalized to the maximum value in each channel. Arrows indicate regions of colocalization. […] Nuclei were stained by Hoescht. Scale bar, 10 Fluorescence intensity was measured across the dotted line and normalized to the maximum value in each channel. Arrows indicate regions of colocalization. The inset show only the ch735 and DNA channels of the boxed region. […] Scale bar, 10 Fluorescence intensity was measured across the dotted white line and normalized to the maximum value in each channel. […]
(§3) To calculate percent internalization, pre-chilled cells were incubated with 50 nM ch735 on ice for 1 h and then washed to remove unbound antibodies. […] Cells were fixed in 2% paraformaldehyde for 20 min and then stained with AF488-labeled antibody against human IgG and analyzed by flow cytometry and FlowJo software. Receptor-antibody complex internalization was calculated using the geometric mean as percent fluorescent intensity loss at 37° C. relative to that on ice. For each sample, the geometric mean fluorescence intensity (MFI) of 10,000 cells was measured in triplicate.

[7] = test system: polySia-positive cell line SH-SY5Y; experiment: Time course of antibody internalization; type: cell-based, human
Method: as §2, §3

B1: mo735: well-known mouse-derived IgG2a monoclonal antibody 735 targeting polysialic acid (antibody, V domains shown)
VH: QIQLQQSGPELVRPGASVKISCKASGYTFTDYYIHWVKQRPGEGLEWIGWIYPGSGNTKYNEKFKGKATLTVDTSSSTAYMQLSSLTSEDSAVYFCARGGKFAMDYWGQGTSVTVSS
VL: DVVMTQTPLSLPVSLGDQASISCRSSQSLVHSNGNTYLYWYLQKPGQSPKPLIYRVSNRFSGVPDRFSGSGSGTDFTLKISRVEAEDLGVYFCFQGTHVPYTFGGGTRLEIK
Q: For B1, which antibody internalization [1] is on record?
A: comparable internalization

Q: And the “complement-dependent cytotoxicity (CDC)” value [2]?
A: only limited complement-dependent cytotoxicity (CDC)

Q: What about the “preferred polySia chain length” value [3] of the same molecule?
A: 8-11 sialic acid residues

Q: What about the “IHC reactivity with cells and tissues” value [4] of the same molecule?
A: reacted with only a limited number of cells and tissues

B2: ch735: chimeric human IgG1 polySia-specific mAb made by swapping variable regions of mouse mAb 735 (antibody, V domains shown)
VH: QIQLQQSGPELVRPGASVKISCKASGYTFTDYYIHWVKQRPGEGLEWIGWIYPGSGNTKYNEKFKGKATLTVDTSSSTAYMQLSSLTSEDSAVYFCARGGKFAMDYWGQGTSVTVSS
VL: DVVMTQTPLSLPVSLGDQASISCRSSQSLVHSNGNTYLYWYLQKPGQSPKPLIYRVSNRFSGVPDRFSGSGSGTDFTLKISRVEAEDLGVYFCFQGTHVPYTFGGGTRLEIK
Q: Which glycoprotein array binding ([5]; array of ~50 glycoproteins) does the source give for B2 here?
A: strong preference for polysialylated NCAM

Q: And the “signal towards any other glycomolecules” value ([5]; microarrays, including endoN-treated NCAM spotted on the glycoprotein array)?
A: no significant signal

Q: And the antibody internalized [6]?
A: ~40%

Q: And the antibody internalized ([7]; 15 min)?
A: ~30%

Q: And the maximum internalization ([7]; reached by 30 min)?
A: 40%
